The values that follow come from patent US20200131263A1 (JIANGSU HENGRUI MEDICINE, published 2020).

T1: mouse GITR (mouse, UniProt O35714 20-153, limits assumed)
T1 sequence (looked up): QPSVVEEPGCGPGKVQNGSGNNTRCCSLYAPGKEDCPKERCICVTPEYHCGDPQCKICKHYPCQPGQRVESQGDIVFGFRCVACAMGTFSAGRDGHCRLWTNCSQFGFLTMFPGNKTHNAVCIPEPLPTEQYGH

T2: human GITR with mFc tag (huGITR-mFc) (human)
T2 chain: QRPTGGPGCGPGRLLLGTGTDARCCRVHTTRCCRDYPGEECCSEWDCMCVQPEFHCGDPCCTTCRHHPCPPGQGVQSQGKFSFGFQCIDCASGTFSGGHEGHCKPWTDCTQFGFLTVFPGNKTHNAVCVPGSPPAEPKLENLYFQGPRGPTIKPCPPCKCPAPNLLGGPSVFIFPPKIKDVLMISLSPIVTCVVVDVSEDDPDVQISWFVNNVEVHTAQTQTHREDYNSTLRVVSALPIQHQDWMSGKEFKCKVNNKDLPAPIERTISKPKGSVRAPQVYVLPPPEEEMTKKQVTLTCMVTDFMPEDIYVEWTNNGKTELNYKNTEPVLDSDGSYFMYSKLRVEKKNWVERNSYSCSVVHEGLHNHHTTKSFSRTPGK

T3: human h-GITR-his antigen (Sino Biological, Cat. #13643-H08H) (human, UniProt Q9Y5U5 26-161)
T3 construct: Bought protein; also called GITR antigen; not shown: His tag
T3 sequence (looked up): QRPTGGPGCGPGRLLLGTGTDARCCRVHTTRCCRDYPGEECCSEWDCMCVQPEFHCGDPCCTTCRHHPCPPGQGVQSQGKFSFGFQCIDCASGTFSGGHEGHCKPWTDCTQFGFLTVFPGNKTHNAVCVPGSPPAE

B1: mouse monoclonal antibody 8A11 (antibody, V domains shown)
VH: EVKLVESGGGLVKPGGSLKLSCAASGFTFSSYAMSWVRQTPEKRLEWVAYISSGGSTYYPDSVKGRFTISRENARNILYLQMSSLRSEDTAMYYCAREGYGTYGDYWGQGTTLTVSS
VL: DIVMSQSPSSLAVSVGEKVTMSCKSSQSLLYSTNQKNYLAWYQQKPGQSPKLLIYWASTRESGVPDRFTGSGSGTDFTLTISSVKAEDLAVYYCQQYYSYLRTFGGGTKLEIK
notes: Mouse antibody from a hybridoma
B2: mouse monoclonal antibody 18F10 (antibody, V domains shown)
VH: QVQLQQSGAELVRPGVSVKISCKCSGYTFTGYDLHWVKQSHAKSLDWIGVISTYYGDANYNQKFKGKATMTVDKSSSTAYMELARLTSEDSAIYYCTRLAESYFFDYWGQGTTLTVSS
VL: QILLTQSPAIMSASPGEKVTMTCRASSSVSYIHWYQQKPGSSPKPWIYDTSDLASGFPARFSGTGSGTSYSLIISSMEAEDAATYYCHQRSSYPFTFGSGTKLEIK
notes: as for B1
B3: mouse monoclonal antibody 7D9 (antibody, V domains shown)
VH: DVQLQESGPGLVKPSQSLSLTCTVTGYSITSDYAWNWIRQFPGNKLEWLGYISYSGSTYYNPSLKSRISLTRDTSKNQFFLQLNSVTSEDTATYYCARWDYRYDGRGFDYWGQGTTLTVSS
VL: DIQMTQSPSSLSASLGERVSLTCRASQDIGSGLNWLQQEPDGTIKRLIYATSSLDSGVPKRFSGSRSGSDYSLTISSLESEDFVDYNCLQYTSTPWTFGGGTKLEIK
notes: as for B1
B4: reference antibody BMAB (Merck's MK-4166 antibody) (antibody, V domains shown)
VH: QVQLQQSGAEVKKPGSSVRVSCKASGGTFNNNAINWVRQAPGQGLEWMGGIIPMFGTAKYSQNFQGRVAITADESTGTASMELSSLRSEDTAVYYCARSRDLLLFPHHALSPWGRGTMVTVSS
VL: SSELTQDPAVSVALGQTVRVTCQGDSLRSYYASWYQQKPGQAPVLVIYGKNNRPSGIPDRFSGSSSGNTASLTITGAQAEDEADYYCSSRDSSGNHWVFGGGTELTVLG
B5: mouse monoclonal antibody 16G9 (antibody, V domains shown)
VH: QVQLQQSGAELAKPGASVKMSCKASGYTFTTYWIHWIKQRPGQGLEWIGYINPSTGYTDYNQNFKDKATLTADQYSSTAYMQLSSLTFEDSAVYYCANYYGSTPYYWGRGTTLTVSS
VL: QIVLTQSPAIMSASPGEKVTMTCSASSSVTYVHWYQQKSGASPERWIFDASKLASGVPARFSGSGSGTSYSLTISSMETEDAATYYCQQWSSNPLTFGAGTKLELK
notes: as for B1
B6: humanized anti-GITR antibody hu18F10 (antibody, human IgG1, kappa, V domains shown)
VH: QVQLVQSGAEVVKPGASVKVSCKASGYTFTGYDLHWVRQAPGQGLEWIGVISTYYGDANYNQKFQGRVTMTVDTSSSTAYMELSRLRSEDTAVYYCTRLAESYFFDYWGQGTTLTVSS
VL: EIVLTQSPATLSASPGERVTLTCRASSSVSYLHWYQQKPGQAPKPWIYDTSNLASGFPARFSGDGSGTDYTLTISSLEAEDAAVYYCHQRSSYPFTFGSGTKLEIKR
B7: humanized anti-GITR antibody hu8A11 (antibody, human IgG1, kappa, V domains shown)
VH: EVQLVESGGGLVQPGGSLRLSCAASGFTFSSYAMSWVRQAPGKGLEWVAYISSGGSTYYPDSVKGRFTISRDNAKNSLYLQMNSLRAEDTAVYYCAREGYGTYGDYWGQGTTLTVSS
VL: DIVMTQSPSSLAVSVGERVTISCKSSQSLLYSTNQKNYLAWYQQKPGQSPKLLIYWASTRESGVPDRFSGSGSGTDFTLTISSLQAEDVAVYYCQQYYSYLRTFGGGTKLEIKR
notes: also called h8A11

One assay addresses T1, mouse GITR. The experiment in a line: ELISA, mouse GITR coated at 1 ug/ml. The method, then:
(§1) The GITR proteins from different species (mouse/cyno GITR) were diluted to 1 μg/ml with PBS buffer pH 9.5, and 50 μl/well was added to a 96-well microplate, which was incubated overnight (16-18 hours) at 4° C. The buffer in the plate was discarded prior to adding 300 μl/well of 1% BSA blocking buffer diluted with PBS, and the plate was incubated for blocking for 2.5h at 37° C. in an incubator. After blocking, the blocking buffer was discarded, and the plate was washed three times with PBST buffer (pH 7.4 PBS containing 0.05% tween-20). 50 μl/well antibodies to be tested were added to the plate, wherein the antibodies were diluted to different concentrations with sample diluent (pH7.4 PBS), and the plate was incubated at 37° C. in an incubator for 30 minutes. After incubation, the reaction buffer in the microplate was discarded prior to washing the plate with PBST three times, and 50 μL/well of Peroxidase AffiniPure Goat Anti-Human secondary antibody (JacksonImmunoResearch, 109-035-088) which was diluted with sample diluent was added, and the plate was incubated at 37° C. for 1 hour. […] The absorption value at 450 nm was read by a MD plus 384 microplate reader.
Consider B1, for which the binding result is listed as “no binding”.

With B2, the binding result was “no binding”.

In the next assay the target is cynomolgus GITR (cyno-GITR) (cynomolgus). The experiment in a line: ELISA, cyno GITR coated at 1 ug/ml. The method, then: as §1
Broadly, the EC50 is the concentration at which the effect is half-maximal. A lower EC50 goes with greater potency. In turn, B1 returned an EC50 of 5.21 nM.

Consider B2, for which the response was half-maximal at 0.744 nM (EC50).

Another assay deals with T2, human GITR with mFc tag (huGITR-mFc). The experiment in a line: ELISA, blocking of GITRL-His binding to coated GITR-Fc. The method, then: huGITR-mFc was diluted to 2 μg/ml with CBS buffer pH 9.5, added to the 96-well microplate at a volume of 50 μl/well, and incubated overnight at 4° C. The supernatant was discarded prior to adding 300 μl/well of 1% BSA blocking buffer diluted with PBS, and the plate was incubated for blocking for 2.5h at 37° C. in an incubator. After blocking, the blocking buffer was discarded, and the plate was washed three times with PBST buffer (pH 7.4 PBS containing 0.05% tween-20) prior to adding antibodies for pre-incubation, wherein the antibodies were diluted into gradient concentrations with sample diluent. 0.15 μg/ml of GITRL-His protein in a volume of 50 μl/well was added, mixed and incubated at 37° C. in an incubator for 30 minutes. The reaction buffer was then discarded, the plate was washed with PBST three times, and 50 μL/well of Peroxidase AffiniPure Goat Anti-Human secondary antibody diluted with sample diluent at a ratio of 1:4000 was added, then the place was incubated at 37° C. for 30 minutes. After washing the plate with PBST three times, 50 μl/well of TMB chromogenic substrate was added and the plate was incubated at room temperature for 5 minutes prior to adding 50 μl of 2M H₂SO₄ to terminate the reaction. The absorption value at 450 nm was read by a MD plus 384 microplate reader. The EC50 values of GITR antibodies binding to GITR were obtained by analyzing the data with SoftMax Pro6.2.1, as shown in Table 1.
(In general: ELISA stands for enzyme-linked immunosorbent assay.)
Broadly, the IC50 is the concentration needed to halve the response being measured. Turning to B1, the IC50 came to 7.57 nM.

Molecule B2 returned an IC50 of 6.04 nM.

The molecule B3 came in with an IC50 of 3.89 nM.

Molecule B4 returned a 50% inhibitory concentration (IC50) of 1.39 nM.

Molecule B5 yielded an IC50 of 10.3 nM.

The next assay deals with T3, human h-GITR-his antigen (Sino …). The experiment in a line: SPR (Biacore T200), antibody captured on Protein A chip, h-GITR-his as analyte, 1:1 Langmuir fit. The method, then:
The affinities of humanized anti-GITR antibodies to be tested and human GITR were measured by Biacore, GE instruments.
A Protein A biosensor chip (Cat. 29-1275-56, GE) for a Biacore Instrument (Biacore T200, GE) was used to affinity-capture a certain amount of antibodies to be tested, and then a series of concentration gradients of GITR antigen (human h-GITR-his antigen was selected from Sino Biological Company (Cat. #13643-H08H)) were flowed through the surface of the chip. Real-time reaction signals were detected by a Biacore Instrument (Biacore T200, GE), thus obtaining the binding and dissociation curves. The biochip was rinsed and regenerated with 10 mM glycine pH 1.5 after each dissociation cycle, and the buffer was PBST, pH7.4. The experimental data were fitted with (1:1) Langmuir model using Biacore T200 Evaluation 2.0, GE software, and the affinity values were obtained, as shown in Table 2.
A general note: Surface plasmon resonance follows binding to a sensor surface in real time, without labels.
By Kd is commonly meant the concentration at which binding is half-saturated. Low readings indicate higher affinity, high ones lower affinity. One may read the koff as a measure of how fast the partners let go of each other. The term kon denotes the rate constant with which the complex forms. Low readings indicate slower complex formation, high ones faster complex formation. As for B6, the dissociation constant Kd turned out to be 0.33 nM, the dissociation rate constant (koff) came to 0.000204 s⁻¹ and the kon was found to be 613000 M⁻¹ s⁻¹.

B4 yielded a dissociation constant (Kd) of 0.185 nM.

In the case of B7, the dissociation constant Kd came out at 0.62 nM, the off-rate (koff) amounted to 0.000104 s⁻¹ and the kon was 168000 M⁻¹ s⁻¹.

For the next assay, the target named is T2, human GITR with mFc tag (huGITR-mFc). Nature of the assay: ELISA, huGITR-mFc coated at 1 ug/ml. The method, then: The huGITR-mFc was diluted to 1 μg/ml with CBS buffer pH 9.5, added to the 96-well microplate at 50 μl/well, and incubated overnight at 4° C. The supernatant was discarded prior to 300 μl/well of 1% BSA blocking buffer diluted with PBS to the wells, and the plate was incubated for 2.5h at 37° C. in an incubator for blocking. After blocking, the blocking buffer was discarded, and the plate was washed three times with PBST buffer (pH 7.4 PBS containing 0.05% tween-20). 50 μl/well of the antibodies to be tested were added, with the antibodies being diluted to different concentrations with sample diluent, and the plate was incubated at 37° C. in an incubator for 30 minutes. The plate was then washed with PBST three times, and 50 μL/well of Peroxidase AffiniPure Goat Anti-Human secondary antibody (Jackson immune research, 115-035-088) diluted with sample diluent was added, followed by incubating at 37° C. for 30 minutes. After washing the plate with PBST three times, 50 μl/well of TMB chromogenic substrate was added and the plate was incubated at room temperature for 5 minutes prior to adding 50 μl/well of 1M […] to terminate the reaction. The absorption value at 450 nm was read by a MD plus 384 microplate reader. The data were analyzed with SoftMax Pro6.2.1 to obtain binding EC50 values of the anti-GITR antibodies to GITR, as shown in Table 1.
In the case of B1, the half-maximal effective concentration (EC50) was determined as 0.077 nM.

In turn, B2 showed an EC50 of 0.103 nM.

In turn, B3 gave a 50% effective concentration (EC50) of 0.055 nM.

Regarding B4, the EC50 was found to be 0.074 nM.

On to B5, for which the EC50 amounted to 0.075 nM.
